Test in all cases: purified protein, by the assay type
Substrate in series [1]: CC(=O)NCCCCCCCCN
More on the design: steady-state kinetics of acetylpolyamine deacetylation, discontinuous LC-MS after dansyl chloride derivatization. As to conditions: 50.0 °C. How it is done: (§1) To study steady-state kinetics with non-fluorogenic peptide substrates and acetylpolyamines, a discontinuous LC–MS was employed based on the protocol of assaying nonfluorogenic acetyllysine peptide substrates for HDAC6 (ref. [17]). Assays were performed in triplicate. Briefly, 5 μl of enzyme (0.050–20 μM) in HEPES buffer (20 mM HEPES (pH 7.5), 100 mM NaCl, 5 mM KCl, 1 mM MgCl2) was added to 35 μl of substrate solution to initiate the reaction. After incubation for 15–60 min at room temperature, the reaction was quenched by addition of 50 μl of 20 mM dansyl chloride dissolved in acetonitrile followed by 10 μl of NaHCO3 (1.6 M, pH 10.0). The deacetylation products were derivatized with dansyl chloride at 50 °C for 2 hrs. The deacetylation products were detected by LC–MS using a Waters SQD equipped with an Acquity UPLC (Waters, Milford, MA, USA) and quantified by using the standard curves generated from the mass signals of the corresponding deacetylated polyamines and peptides. Inhibition of HDAC10 activity was measured by using 0.49 μM zHDAC10 with 192 μM N^8-acetylspermidine. Data were analysed by logistic regression for IC50 determination and the inhibition constant Ki was calculated based on the Cheng-Prusoff equation, Ki=IC50 / (1+[S]/KM)[45]. Assays were performed in triplicate at room temperature. We next tested the PDAC activity of hHDAC10 and zHDAC10 against several polyamine substrates using the LC–MS assay (Fig. 2, Supplementary Fig. 3 and Supplementary Table 1). […] For hHDAC10 and zHDAC10, kcat/KM=2,900±200 and 4,600±300 M^−1 s^−1, respectively; in comparison, N^1-acetylspermidine was a poor substrate with kcat/KM=24±5 and 7±2 M^−1 s^−1, respectively. Substrate specificity trends observed for zHDAC10 and hHDAC10 matched those of the previously reported mammalian N^8-acetylspermidine deacetylase activity. […] As a negative control, we examined the N^8-acetylspermidine deacetylase activity of human and zebrafish HDAC6 (ref. [17]). HDAC6 preferentially catalyses the deacetylation of the peptide substrate RGK(ac)-AMC with a catalytic efficiency >100-fold greater than that for the deacetylation of N^8-acetylspermidine. Therefore, HDAC6 is clearly an acetyllysine deacetylase and HDAC10 is an N^8-acetylspermidine deacetylase. It is notable that the molecular function of HDAC10 coincides with the cellular function of the cytosolic PDAC indicated in Fig. 1a.

Substrate in series [2]: CC(=O)NCCCCNCCCN
More on the design: steady-state kinetics of acetylpolyamine deacetylation, discontinuous LC-MS after dansyl chloride derivatization. Conditions: 50.0 °C. The procedure:
as §1

Substrate in series [3]: CCCCNC(C)=O
Set-up: steady-state kinetics of acetylpolyamine deacetylation, discontinuous LC-MS after dansyl chloride derivatization. Conditions: 50.0 °C. The procedure: as §1

Substrate in series [4]: CC(=O)NCCCCNCCCNC(C)=O
Set-up: steady-state kinetics of acetylpolyamine deacetylation, discontinuous LC-MS after dansyl chloride derivatization. Conditions: 50.0 °C. How it is done: as §1

Substrate in series [5]: CC(=O)NCCCCCN
More on the design: steady-state kinetics of acetylpolyamine deacetylation, discontinuous LC-MS after dansyl chloride derivatization. Conditions: 50.0 °C. The procedure: as §1

Substrate in series [6]: CC(=O)NCCCCN
More on the design: steady-state kinetics of acetylpolyamine deacetylation, discontinuous LC-MS after dansyl chloride derivatization. As to conditions: 50.0 °C. How it is done:
as §1

Substrate in series [7]: CC(=O)NCCCC[C@H](NC(C)=O)C(N)=O
Set-up: discontinuous LC-MS deacetylation assay, dansylated product quantified, steady-state kinetics. As to conditions: 50.0 °C. How it is done: To study steady-state kinetics with non-fluorogenic peptide substrates and acetylpolyamines, a discontinuous LC–MS was employed based on the protocol of assaying nonfluorogenic acetyllysine peptide substrates for HDAC6 (ref. [17]). Assays were performed in triplicate. Briefly, 5 μl of enzyme (0.050–20 μM) in HEPES buffer (20 mM HEPES (pH 7.5), 100 mM NaCl, 5 mM KCl, 1 mM MgCl2) was added to 35 μl of substrate solution to initiate the reaction. […] The deacetylation products were derivatized with dansyl chloride at 50 °C for 2 hrs. The deacetylation products were detected by LC–MS using a Waters SQD equipped with an Acquity UPLC (Waters, Milford, MA, USA) and quantified by using the standard curves generated from the mass signals of the corresponding deacetylated polyamines and peptides. Inhibition of HDAC10 activity was measured by using 0.49 μM zHDAC10 with 192 μM N^8-acetylspermidine. Data were analysed by logistic regression for IC50 determination and the inhibition constant Ki was calculated based on the Cheng-Prusoff equation, Ki=IC50 / (1+[S]/KM)[45]. Assays were performed in triplicate at room temperature.

Substrate in series [8]: CC(=O)NCCCC[C@H](NC(=O)[C@H](C)NC(=O)CNC(C)=O)C(=O)Nc1ccc2c(C)cc(=O)oc2c1
More on the design: fluorogenic AMC-conjugated acetyllysine peptide deacetylation, steady-state kinetics. From the text: To determine steady-state kinetic parameters for the hydrolysis of a variety of acetylpolyamine and acetyllysine substrates, we prepared full-length recombinant HDAC10 from human (H. sapiens, hHDAC10) and zebrafish (D. rerio, zHDAC10). The CDs of these orthologues are highly similar based on 63%/79% sequence identity/similarity; only full-length constructs yielded soluble proteins. We first assayed the lysine deacetylase activity of these constructs against two commercially available aminomethylcoumarin (AMC)-conjugated fluorogenic acetyllysine peptides, GAK(ac)-AMC and RGK(ac)-AMC (molecular structures of all substrates are shown in Supplementary Fig. 2). […] These measurements were consistent with earlier studies reporting that HDAC10 activity was not measurable using fluorogenic peptide substrates. We also tested activity with 11 non-fluorogenic acetyllysine substrates using a […] chromatography–mass spectrometry (LC–MS)-based discontinuous assay[17] to avoid potential steric clashes that might occur with the bulky AMC group. These substrates included K(ac)NL and GAK(ac)NLQ, which mimic the peptide segment containing K73 in the proposed HDAC10 substrate MutS homologue 2 (MSH2)[22]. Again, we observed no or very low catalytic activity (Fig. 2 and Supplementary Table 1). In comparison with its closest relative, the cytosolic isozyme HDAC6 (ref. [17]), HDAC10 was clearly not an efficient lysine deacetylase.

For 1 protein, Km, kcat and kcat/Km results are on record in PMC5454378, “Histone deacetylase 10 structure and molecular function as a polyamine deacetylase” (Nature Communications, 2017).

B1: zHDAC10 (Danio rerio) (protein)
chain: ASGSALIFDEEMSRYKLLWTDPACEIEVPERLTVSYEALRTHGLAQRCKAVPVRQATEQEILLAHSEEYLEAVKQTPGMNVEELMAFSKKYNDVYFHQNIYHCAKLAAGATLQLVDSVMKREVRNGMALVRPPGHHSQRSAANGFCVFNNVAIAALYAKKNYNLNRILIVDWDVHHGQGIQYCFEEDPSVLYFSWHRYEHQSFWPNLPESDYSSVGKGKGSGFNINLPWNKVGMTNSDYLAAFFHVLLPVAYEFDPELVIVSAGFDSAIGDPEGEMCALPEIFAHLTHLLMPLAAGKMCVVLEGGYNLTSLGQSVCQTVHSLLGDPTPRISGLGTACDSALESIQNVRNVQSSYWSSFKHLAQSETNPKRPRLDATNGGPKESSEPASESNPKKTAQDIVWPEPLKRMPASVRTVVVPPPGVELTLPKNCQHSGDISESTAKEVQRIRDKHFHDLTDQNILRSLGNIISVLDRMMRSDEVCNGCVVVSDLSVSVQCALQHALTEPAERVLVVYVGDGELPVKTNDGKVFLVQICTKETEDKCVNRLSLCLREGESLTAGFMQALLGLILPVAYEFNPALVLGIVGETAAKTGLMTVWGHMTCLIQGLARGRTLTLLQGYDKDLLELTVSALSGASISPLGPLRALKPEDVEMMEKQRQRLQERWGLLRCTVSES
notes: full-length, residues 2–675
On to B1, for which the Km in series [1] is 170 ± 40 µM; in series [2], 130 ± 20 µM; in series [3] it was 900 ± 200 µM; in series [4], 180 ± 40 µM; in series [5], 90 ± 30 µM; in series [6] it was 160 ± 50 µM. In addition, the Michaelis constant (Km) in series [7] amounted to 80 ± 10 µM; in series [8] it was 22 ± 4 µM. In addition, the turnover number (kcat) turned out to be 0.21 ± 0.02 s⁻¹ in series [1]; 0.58 ± 0.03 s⁻¹ in series [2]; 0.06 ± 0.02 s⁻¹ in series [3]; 0.48 ± 0.08 s⁻¹ in series [4]; 0.37 ± 0.04 s⁻¹ in series [5]; 0.7 ± 0.1 s⁻¹ in series [6]. Besides, the kcat worked out at 0.013 s⁻¹ in series [7] and 0.00033 ± 2e-05 s⁻¹ in series [8]. In addition, the specificity constant (kcat/Km) in series [1] is 1200 ± 200 M⁻¹ s⁻¹; in series [2], 4600 ± 300 M⁻¹ s⁻¹; in series [3], 60 ± 20 M⁻¹ s⁻¹; in series [4], 2700 ± 300 M⁻¹ s⁻¹; in series [5], 3900 ± 300 M⁻¹ s⁻¹; in series [6], 4200 ± 900 M⁻¹ s⁻¹. In addition, the kcat/Km in series [7] came out at 160 M⁻¹ s⁻¹; in series [8] it was 15 ± 2 M⁻¹ s⁻¹.
